Data taken from US20230093155A1.
Values joined by “and” are separate entries in the source; they are usually repeats but may differ in a detail not shown here. Identical values can stand only once.

The substances below were run against IL-2Rβ and γc complex expressed on the lymphocytes (human) (UniProt P14784) (assay: cell-based or functional assay).
Chain of IL-2Rβ and γc complex expressed on the lymphocytes (human) (P14784 27-551, chain 1 of 2): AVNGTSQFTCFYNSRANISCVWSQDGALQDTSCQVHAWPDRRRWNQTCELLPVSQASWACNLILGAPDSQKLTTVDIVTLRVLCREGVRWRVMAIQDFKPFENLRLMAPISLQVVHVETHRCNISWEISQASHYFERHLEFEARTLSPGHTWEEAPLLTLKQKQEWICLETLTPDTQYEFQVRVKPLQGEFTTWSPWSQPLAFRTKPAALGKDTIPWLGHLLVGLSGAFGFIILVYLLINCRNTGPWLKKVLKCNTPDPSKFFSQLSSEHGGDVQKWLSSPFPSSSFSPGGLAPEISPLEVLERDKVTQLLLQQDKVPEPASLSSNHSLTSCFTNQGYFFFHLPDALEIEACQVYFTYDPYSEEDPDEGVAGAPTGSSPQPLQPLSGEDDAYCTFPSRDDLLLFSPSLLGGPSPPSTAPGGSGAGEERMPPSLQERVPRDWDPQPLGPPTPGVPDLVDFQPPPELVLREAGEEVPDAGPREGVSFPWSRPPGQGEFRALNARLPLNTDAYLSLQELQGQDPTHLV
Chain of IL-2Rβ and γc complex expressed on the lymphocytes (human) (P31785 23-369, chain 2 of 2, further chain): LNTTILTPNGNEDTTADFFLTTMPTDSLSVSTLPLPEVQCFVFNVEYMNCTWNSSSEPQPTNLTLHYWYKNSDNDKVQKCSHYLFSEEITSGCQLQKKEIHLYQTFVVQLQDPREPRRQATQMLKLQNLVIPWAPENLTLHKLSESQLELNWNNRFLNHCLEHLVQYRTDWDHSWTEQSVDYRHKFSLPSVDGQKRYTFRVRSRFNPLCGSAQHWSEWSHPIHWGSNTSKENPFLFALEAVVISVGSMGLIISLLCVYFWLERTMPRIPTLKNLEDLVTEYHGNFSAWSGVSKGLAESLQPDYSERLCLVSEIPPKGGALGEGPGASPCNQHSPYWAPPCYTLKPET

CD8 T cell proliferation EC50 (pM)	Fold change vs. P-0313 [fold]	Substance
296000 pM	6730	P-0357 (IL-15 I68D/IL-15Rα Fc fusion) (from UniProt Q13261 31-107)
44 pM and 32 pM	1	P-0313 (IL-15 S58D/IL-15Rα Fc fusion) (from UniProt Q13261 31-107)
419 pM	9.5	P-0358 (IL-15 I68H/IL-15Rα Fc fusion) (from UniProt Q13261 31-107)
4470 pM	102	P-0736 (IL-15 I68Q/IL-15Rα Fc fusion) (from UniProt Q13261 31-107)
14500 pM	330	P-0737 (IL-15 I68G/IL-15Rα Fc fusion) (from UniProt Q13261 31-107)
1420 pM	45	P-0773 (IL-15 V63A/I68H variant/IL-15RαSushi Fc fusion protein) (from UniProt Q13261 31-107)
68800 pM	2170	P-0793 (IL-15 Q108A/IL-15Rα Fc fusion) (from UniProt P0DOX5 223-448; Q13261 31-107)
24800 pM	564	P-0738 (IL-15 I68K/IL-15Rα Fc fusion) (from UniProt Q13261 31-107)
1250 pM	29	P-0356 (IL-15 I68F/IL-15Rα Fc fusion) (from UniProt Q13261 31-107)
184 pM	5.8	P-0770 (IL-15 V63R/IL-15Rα Fc fusion) (from UniProt Q13261 31-107)
132 pM	4.2	P-0771 (IL-15 V63A/IL-15Rα Fc fusion) (from UniProt Q13261 31-107)
360 pM	11.3	P-0769 (IL-15 V63K/IL-15Rα Fc fusion) (from UniProt Q13261 31-107)
15400 pM	485	P-0772 (IL-15 V63A/I68Q/IL-15Rα Fc fusion) (from UniProt Q13261 31-107)
62100 pM	1960	P-0764 (IL-15 Q108S/IL-15Rα Fc fusion protein) (from UniProt P0DOX5 223-448; Q13261 31-107)
48000 pM	1510	P-0768 (IL-15 V63A/I68G/IL-15Rα Fc fusion) (from UniProt Q13261 31-107)
